Assay results reported in patent US20210169929A1.

Target: CD19 CAR (4G7-CAR) encoded by Construct 1, expressed on transfected HEK293 cells
Test: flow cytometry, HEK293 cells transfected with Construct 1, biotinylated CD19 then streptavidin-PE; unstained 17.4, streptavidin-PE only 18.5

Sequence of CD19 CAR (4G7-CAR) encoded by Construct 1, expressed on transfected HEK293 cells (chain, as listed by the source limits assumed): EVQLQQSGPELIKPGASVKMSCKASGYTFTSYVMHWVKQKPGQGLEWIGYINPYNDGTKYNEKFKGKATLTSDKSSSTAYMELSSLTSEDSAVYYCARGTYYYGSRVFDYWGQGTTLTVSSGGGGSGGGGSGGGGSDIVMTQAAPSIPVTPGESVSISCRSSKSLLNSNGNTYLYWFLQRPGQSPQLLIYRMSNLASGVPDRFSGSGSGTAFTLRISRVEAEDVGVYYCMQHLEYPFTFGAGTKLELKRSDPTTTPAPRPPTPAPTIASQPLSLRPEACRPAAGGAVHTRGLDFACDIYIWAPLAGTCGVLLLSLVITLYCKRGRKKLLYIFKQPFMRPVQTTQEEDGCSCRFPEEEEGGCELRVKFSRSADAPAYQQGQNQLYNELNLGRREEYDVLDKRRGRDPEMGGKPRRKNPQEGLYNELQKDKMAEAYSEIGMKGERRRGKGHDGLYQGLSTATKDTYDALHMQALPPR

biotinylated CD19 (Acro CD9-H8259, Acro Biosystems) (from UniProt P15391 20-291)
PE (CD19) flow cytometry value: 33.3
